Patent publication US20240076386A1 (Pfizer, published 2024)

T1: cynomolgus monkey E-selectin extracellular domain with 10 His purification tail (cynomolgus monkey, UniProt P16581 22-554 (human entry))
T1 construct: also called cynomolgus E-selectin; truncated cynomolgus monkey E-selectin
T1 chain: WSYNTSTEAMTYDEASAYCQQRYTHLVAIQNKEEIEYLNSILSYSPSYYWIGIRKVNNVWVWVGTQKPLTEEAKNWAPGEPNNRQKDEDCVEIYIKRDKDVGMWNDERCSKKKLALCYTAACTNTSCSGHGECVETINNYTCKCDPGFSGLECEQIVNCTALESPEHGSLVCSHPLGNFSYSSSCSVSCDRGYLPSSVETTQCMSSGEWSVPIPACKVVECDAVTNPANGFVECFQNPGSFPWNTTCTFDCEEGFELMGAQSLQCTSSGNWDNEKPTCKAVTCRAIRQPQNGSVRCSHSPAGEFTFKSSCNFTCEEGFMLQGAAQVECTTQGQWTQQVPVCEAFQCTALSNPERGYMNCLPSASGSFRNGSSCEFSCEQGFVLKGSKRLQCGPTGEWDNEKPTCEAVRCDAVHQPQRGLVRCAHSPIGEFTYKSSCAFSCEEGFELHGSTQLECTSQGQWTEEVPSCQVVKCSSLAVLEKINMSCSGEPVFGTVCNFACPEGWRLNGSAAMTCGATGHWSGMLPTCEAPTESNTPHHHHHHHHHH

T2: recombinant histidine-tagged cynomolgus monkey E-selectin (Sino Biologicals; 190169-C08H) (cynomolgus monkey, UniProt A0A2K5U7H9 22-554)
T2 construct: also called recombinant cynomolgus monkey E-selectin
T2 sequence: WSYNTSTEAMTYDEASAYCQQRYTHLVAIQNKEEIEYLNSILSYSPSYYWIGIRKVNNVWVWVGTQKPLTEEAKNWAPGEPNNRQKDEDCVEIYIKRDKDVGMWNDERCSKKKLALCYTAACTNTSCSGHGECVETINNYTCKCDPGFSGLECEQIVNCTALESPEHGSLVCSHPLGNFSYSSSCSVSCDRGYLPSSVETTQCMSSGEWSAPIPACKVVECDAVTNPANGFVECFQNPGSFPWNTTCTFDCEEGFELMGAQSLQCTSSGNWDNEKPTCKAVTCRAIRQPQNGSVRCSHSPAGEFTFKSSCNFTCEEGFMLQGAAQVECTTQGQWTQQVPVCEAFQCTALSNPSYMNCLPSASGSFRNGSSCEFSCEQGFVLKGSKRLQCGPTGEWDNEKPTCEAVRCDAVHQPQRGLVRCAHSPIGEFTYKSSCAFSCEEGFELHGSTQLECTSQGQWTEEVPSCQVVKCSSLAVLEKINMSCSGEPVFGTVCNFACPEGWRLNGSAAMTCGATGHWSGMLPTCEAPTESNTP

T3: recombinant histidine-tagged human E-selectin (Sino Biologicals; 13025-H08H) (human, UniProt P16581 22-556)
T3 construct: also called recombinant human E-selectin; soluble recombinant human E-selectin
T3 sequence (looked up): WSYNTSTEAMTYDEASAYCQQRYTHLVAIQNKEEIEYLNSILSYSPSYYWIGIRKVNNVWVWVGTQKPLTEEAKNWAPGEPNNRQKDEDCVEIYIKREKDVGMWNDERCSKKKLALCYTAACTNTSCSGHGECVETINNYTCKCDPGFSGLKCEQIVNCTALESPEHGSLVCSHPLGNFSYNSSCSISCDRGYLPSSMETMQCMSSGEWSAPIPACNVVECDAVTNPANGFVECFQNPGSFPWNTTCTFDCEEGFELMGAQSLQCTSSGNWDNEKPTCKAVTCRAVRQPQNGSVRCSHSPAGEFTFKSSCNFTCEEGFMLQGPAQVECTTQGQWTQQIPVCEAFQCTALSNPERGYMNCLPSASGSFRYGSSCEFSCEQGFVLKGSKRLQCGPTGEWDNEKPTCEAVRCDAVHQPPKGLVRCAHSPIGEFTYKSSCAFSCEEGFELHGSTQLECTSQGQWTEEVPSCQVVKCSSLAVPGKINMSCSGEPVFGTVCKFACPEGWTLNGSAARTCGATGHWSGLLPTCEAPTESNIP


Legend:
[1] = target: T1, cynomolgus monkey E-selectin …; assay: SPR, antibody captured, E-selectin analyte
Description: Final immobilization level of the capture antibody was approximately 10,000 resonance units (RU). The running buffer for immobilization and kinetics was HBS-EP+(10 mM 4-(2-hydroxyethyl)-1-piperazineethanesulfonic acid (HEPES) pH 7.4, 150 mM sodium chloride, 3 mM ethylenediaminetetraacetic acid (EDTA), 0.05% (v/v) Tween-20).
To characterize binding of antibodies to human, cynomolgus monkey, and mouse E-selectin, an antibody was diluted to 0.5 μg/mL in HBS-EP+ and captured by the anti-human IgG immobilized on flow cells 2, 3 and 4 for 30 seconds to 1 minute at a flow rate of 10 μL/minute to achieve a capture level of 70 to 300 RU. Flow cell 1 was used as a reference surface. […] HBS-EP+ buffer cycles collected for each captured antibody were used for double-referencing (Myszka D G. J. Mol. Recognition 1999; 12(5):279-84). At the end of each cycle, the entire anti-IgG surface was regenerated by a 30 second pulse of 3 M MgCl₂ and a 30 second pulse of ionic buffer (1.83 M MgCl₂, 0.92 M Urea, 1.83 M Guanidine HCl, pH 7.4) (Andersson K. Analy. Chem. 1999; 71(13): 2475-81). Kinetic assays were conducted at 25° C. at a collection rate of 10 Hertz (Hz) on a BIAcore™ T200 instrument (GE Healthcare). Rate constants and affinities were determined by fitting the data to a 1:1 binding model in BIAcore™ T200 Evaluation software version 3.0 (GE Healthcare).
This was done by first binding the antibody to immobilized anti-human IgG. After antibody capture, dilutions of the E-selectin proteins were flowed over and the association rate constant (ka), disassociation rate constant (kd), t½, and KD values were determined for binding to human and cynomolgus E-selectin (Table 13).

[2] = target: T2, recombinant histidine-tagged cynomolgus …; assay: neutralization of sialyl Lewis A ligand binding, soluble recombinant protein, competition ELISA
Description: (§1) Recombinant histidine-tagged E-selectin; cynomolgus monkey E-selectin (Sino Biologicals; 190169-C08H) and human E-selectin (Sino Biologicals; 13025-H08H) stock solutions were prepared to a final concentration of 3 μg/mL in phosphate buffered saline (PBS) without calcium and magnesium. One hundred μL per well of the diluted recombinant E-selectin protein was added into a Ni-NTA HisSorb 96 well plate (Qiagen, 35061) and plates were incubated on an orbital shaker at room temperature for 2 hours. Sialyl Lewis A polyacrylamide biotin, a synthetic E-selectin ligand (GlycoTech corporation 01-044), was conjugated to streptavidin HRP (horse radish peroxidase) (Ultra Streptavidin HRP, Thermo Scientific N504) and diluted in assay diluent containing 2 mM calcium chloride (BD OptEIA buffer; BD Biosciences, 555213).

[3] = target: T3, recombinant histidine-tagged human …; assay: as above
Description: as §1

Kd [1] [nM] | koff [1] [s⁻¹] | kon [1] [M⁻¹ s⁻¹] | t½ [1] [s] | IC50 [2] [nM] | IC50 [3] [nM] | Binder
138 | 0.0252 | 182000 | 27.6 | – | – | humanized anti-E-selectin antibody 0841 (antibody, human IgG1, kappa, V domains shown, effector-null human IgG1, kappa) VH: EVQLVESGGGLVQPGGSLRLSCAASGYNIRSSYMHWVRQAPGKGLEWVARIDPANGNTIYAEKFKIRFTISADNAKNSAYLQMNSLRAEDTAVYYCAMDLYSTSEYWGQGTLVTVSS VL: DIQMTQSPSSLSASVGDRVTITCKTSQNINRYLNWYQQKPGKAPKLLIYNANSLQTGVPSRFSGSGSGTDFTLTISSLQPEDFATYFCLQDNSWPLTFGQGTKVEIKR
– | – | – | – | 2.39 to 2.91 | 2.87 to 3.01 | optimized anti-E-selectin antibody 1444 (antibody, human IgG1, kappa, V domains shown, effector-null human IgG1, kappa) VH: EVQLVESGGGLVQPGGSLRLSCAASGYAIRSAYMHWVRQAPGKGLEWVARIDPANGNTIYVDSVTGRFTISADNAKNSAYLQMNSLRAEDTAVYYCAMDLYSTSEYWGQGTLVTVSS VL: DIQMTQSPSSLSASVGDRVTITCKTSQNIERYLNWYQQKPGKAPKLLIYAASSLQSGVPSRFSGSGSGTDFTLTISSLQPEDFATYFCLQDNAWPLTFGQGTKVEIKR
